In the DeepSol protein solubility set:

Assay: soluble on expression in E. coli; label from the status in PepcDB or PDB records

Soluble on expression in E. coli, soluble:
MMEERANLMHMMKLSIKVLLQSALSLGRSLDADHAPLQQFFVVMEHCLKHGLKVKKSFIGQNKSFFGPLELVEKLCPEASDIATSVRNLPELKTAVGRGRAWLYLALMQKKLADYLKVLIDNKHLLSEFYEPEALMMEEEGMVIVGLLVGLNVLDANLCLKGEDLDSQVGVIDFSLYLKDVQDLDGGKEHERITDVLDQKNYVEELNRHLSCTVGDLQTKIDGLEKTNSKLQEELSAATDRICSLQEEQQQLREQNELIRERSEKSVEITKQDTKVELETYKQTRQGLDEMYSDVWKQLKEEKKVRLELEKELELQIGMKTEMEIAMKLLEKDTHEKQDTLVALRQQLEEVKAINLQMFHKAQNAESSLQQKNEAITSFEGKTNQVMSSMKQMEERLQHSERARQGAEERSHKLQQELGGRIGALQLQLSQLHEQCSSLEKELKSEKEQRQALQRELQHEKDTSSLLRMELQQVEGLKKELRELQDEKAELQKICEEQEQALQEMGLHLSQSKLKMEDIKEVNQALKGHAWLKDDEATHCRQCEKEFSISRRKHHCRNCGHIFCNTCSSNELALPSYPKPVRVCDSCHTLLLQRCSSTAS
MSLKEVDLTQEQMKDLNLTYDWYRSYDNAKLNEFLNFVLLNNSDINIARKTLLSALARADLIDYDLYPTLSGNLGFGADKDLNSGKQSKNFNNSLNLSYELDIYGKLRDSASASEFSAKASAYDLENLKISMINTALNDVFELAYFNDVDKLLRAYLSNLEQMKELYNYKYKLGKIEELDLLNIEQSLLRAKQNLLSNDQNRNLLIKNLQDLLARQEGFAYIEYFKTLSLNDFKTLSPDFNIPLKALAYRADVRSKLNSLKSAFKDYSSMQKSILPSISLGGALSGSDKKIDDSFKFEILSGNVKISLPFLDYGRVKQNIKISQFAYEQLLISYEQVLQSAMNEFALNYKDYQSDTLLLQNLQNINIKQELITKAYYEKYILGKSELKDYLDANNTLNSTQQEFLRARFNLLKTINSYYQITALSFNNENLEFPKEGHHHHHH
MSLCEDMLLCNYRKCRIKLSGYAWVTACSHIFCDQHGSGEFSRSPAICPACNSTLSGKLDIVRTELSPSEEYKAMVLAGLRPEIVLDISSRALAFWTYQVHQERLYQEYNFSKAEGHLKQMEKIYTQQIQSKDVELTSMKGEVTSMKKVLEEYKKKFSDISEKLMERNRQYQKLQGLYDSLRLRNITIANHEGTLEPSMIAQSGVLGFPLGNNSKFPLDNTPVRNRGDGDGDFQFRPFFAGSPTAPEPSNSFFSFVSPSRELEQQQVSSRAFKVKRI
MSTPGTLHIVATPIGNLGDLSPRAQHILRTVTMICAEDTRHTRQLLAHFGIERPLLALHAHNEDTLAERIITRLISGASLALVSDAGTPLISDPGFLLVRAARAAGIRVTPVPGPSALIAALSVSGLPSNRFTFEGFLPAKPTARRDRLTHLAHEPRTLIFYEASHRIAECLTDLATIFGSMRAAVVARELTKIFETVLDGTLATLQTQVANDDNQRKGEFVIIVQGAADQDAAKITEGRRVYALLKEHLPPSSAAKLAAEITGAPRKALYGG
MIERYSREEMSNIWTDQNRYEAWLEVEILACEAWSELGHIPKADVQKIRQNAKVNVERAQEIEQETRHDVVAFTRQVSETLGEERKWVHYGLTSTDVVDTALSFVIKQANDIIEKDLERFIDVLAEKAKNYKYTLMMGRTHGVHAEPTTFGVKMALWYTEMQRNLQRFKQVREEIEVGKMSGAVGTFANIPPEIESYVCKHLGIGTAPVSTQTLQRDRHAYYIATLALIATSLEKFAVEIRNLQKTETREVEEAFAKGQKGSSAMPHKRNPIGSENITGISRVIRGYITTAYENVPLWHERDISHSSAERIMLPDVTIALDYALNRFTNIVDRLTVFEDNMRNNIDKTFGLIFSQRVLLALINKGMVREEAYDKVQPKAMISWETKTPFRELIEQDESITSVLTKEELDECFDPKHHLNQVDTIFERAGLA
AHHHHHHGSLCEEKLEVFENGFKDDKHNIEIHVYGGDGRKVLLALIYELYSPEYGSEYVYPFECAKEFWGIYLDSSEVKGEEAELKPLKFISESVKSKIEKELEDIKAPIEVELEKSTIYKVKDGYIVLGKNFLLDHKGRLFVFNKPQVGEIILKYIWKW
LPNITILATGGTIAGGGDSATKSNYTVGKVGVENLVNAVPQLKDIANVKGEQVVNIGSQDMNDNVWLTLAKKINTDCDKTDGFVITHGTETMEETAYFLDLTVKCDKPVVMVGAMRPSTSMSADGPFNLYNAVVTAADKASANRGVLVVMNDTVLDGRDVTKTNTTDVATFKSVNYGPLGYIHNGKIDYQRTPARKHTSDTPFDVSKLNELPKVGIVYNYANASDLPAKALVDAGYDGIVSAGVGNGNLYKSVFDTLATAAKTGTAVVRSSRVPTGATTQDAEVDDAKYGFVASGTLNPQKARVLLQLALTQTKDPQQIQQIFNQY
PVLIVTPLEDQQVFVGDRVEMAVEVSEEGAQVMWMKNGVELTREDSFKARYRFKKDGKRHILIFSDVVQEDRGRYQVITNGGQCEAELIVEEKQ

Soluble on expression in E. coli, not soluble:
MKLDFSSGAKPLWSQMANIIKKRIEDGEYEIGCTLPSEMSFADEFNVSRITVRQALNRLMTDGYILRQRGKGTIVKRDKTSFSTRMQSSFKQLQDEYDKTTKTLISVNNVKASEDVAEVFDINPGDNVIMLERSVESKGKIITIYHNYISPKVGASLKDDFTGSFYKYLEMKGFYITSAKEVISAKISTAKDKEVFGFSNDRAMLLKTKYGYSDGVPVEITYGTYIADDYNIVIELV
VQSMSDESEKNSASPDAMRVGTRVLVRRQPEAATGVIVEDYAELTDTAGRGHDWAPVHRWAVALDDGRLVFADTEDLTVDIGTVDSE
YDKEFGGFGGAPKFPMAMNLSFLLRYGQRYGDGEAVAMATDTLTAMAQGGIWDHLGGGFHRYTVDGRWLVPHFEKMLYDQALCTLALVEAAQVTGNSVFRELAKETCGFVLRELSAPAGGFYSALDADSEGREGACYLWTPAQVRDILGVADGELFCRLYAVTAWGNFEGANVLHLPLAPDAFARDEGVDPLRLQEKIAQWHILLLEARERRPRPFRDEKIITGWNGLMIAALARTFLICGDELLLEGAERAVRRVCIDLRTPAGRLVRSCHRGEASGPGFLEDYAFFIRGLLELHEATLDPRHLALARSLAHDMLRLFGDSGGGLFDTGSDAETILVRGKG
MEASLYSRVGDKVVCQLCWRFCKLGDGEEGHCRVRRNEGGKIFTTTYGKLSHLESRPIEIKPFFHFLPGSTSMTFSTYSCNFDCPWCQNWSISKATPPEALRETSPEEVVDLALIMGDKSTCASLNEPTLLYEYLLDVFRLAREKGLKNTMVSNGYMSILALKNLKNAGLDAINIDVKGDERVYRDYCNAEVEYVWRVIEKATKLGIHVEVVCLLVSNVVDEEVVREIVREHLRRAGSSIPIHFTRYFPAYRFTAPPTRIEFLEWAVKHAYKEGAEFAYIGNVPGHRFENTHCPDCGELLIRRYSFSTVDNRIRSGCCPKCGREIYGVWV
MIIKRNDMAPSVKAGDAILFYRLSQTYKVEEAVVYEDSKTSITKVGRIIAQAGDEVDLTEQGELKINGHIQNEGLTFIKSREANYPYRIADNSYLILNDYYSQESENYLQDAIAKDAIKGTINTLIRLRNH
MGSDKIHHHHHHMKITKVECIPVSMPLKKPLRLPNVTITKLDTLLLRLHTETGLVGIAESGDTSSWYRGESQASMVSMICDIFAPRILLGEDPCNIEKIVGAMDTLARDNNQAKGLVDCALHDLKGKVLNVPVYQLLGGRTRESAPLGWVLSAGEPDKVAEAALSAREAGFVAFKLKVGRGTFDNDVATAAAVRKALGDSARICLDANGSWNYEQALRTIRRLDAYRLDFVEQPLPHWDIEGMARLRQRIDTPVYADEAAQELHHLKEIAERRAADGVILKVQKVGGLLKAQRFLAVAQMFDLPVMCSTLIGSGVEACPTAHLWVANQWACQFISESTGPLAVHGVWNSEDIPQGADLALQGARFHRGHVSPGDGPGLGVELNEALLGQIRTEGRPARVVNL
MGSDKIHHHHHHMAQYSAQFNHAKVLVLGDVMLDRYWFGATNRISPEAPVPVVRVQQNEERAGGAANVAMNIASLNVPVQLLGLTGQDEAGAALTSLLQQQKIACDFVQLATHPTITKLRILSRHQQLLRLDFEEDFQNMTSADLLKKLESAVKNYGALILSDYGKGTLNEVQKMIQIARNANVPVLIDPKGTDFERYRGATLLTPNMSEFEAVVGKCHSEQEIIDKGLKLISEINLTALLVTRSEKGMTLLRPNQPVYHLPTEAKEVFDVTGAGDTVISVLATALADGRSFEEACYLANVAAGIVVGKLGTSTVSTVELENAIHGRTGTGFGVMTEAELKEAVKLAKDRGEKIVMTNGCFDILHPGHVSYLDNARKFGDRLIVAVNTDDSVKRLKGEERPINNLASRMAVLAGLSSVDWLVPFGEDTPQRLIGEVLPDLLVKGGDYKPEEIAGSKEVWANGGDVKVLNFENGFSTSNVIKKIKHLEK
MGSDKIHHHHHHMIGDEPIRIRQLQALNILAESGTMSLTAKAMNISQPAVSRLLSDLSKELGYPLFSRSGRRLTLTREAQYLLPEIQRIFGAMGQIRNLRQNIQDGTSGHLKIACLPGFSTSHLPGVVADFLAARPKTTLTIEPDRPERILDWVIGEQYDCGITDGFRSHHALDSKTIPIRCVCIFPEGHPLEAKSVIHPEDLAGERIAHDRFGSEFYLRLRDILDAEGIAMDNFIETRQFTCACELVSKGVCVSVVSELDAQEYIGKGVSFRPFSANITHQLSLVWPRHTPTSILTLEFLGLFEKSLEPYAMTET
MRVGQHTLQFANPPVIVATASVVGPKEGEGPLGDTFDMVIDDSYFGEETWEKAERKMLEEAVKMVIAKAQLKPQDIDFLLAGDLLNQTISANYAARSLGIPFLGLYGACSTMYEGMALAAMLIDGGFAHHVVAACSSHYDTAERQYRFPTEQGIQRPPTAQWTVTGAGAVLMAPVGNGPRITHATIGRVLDVGIKDPNDMGSAMAPAAVDTIVRHFQDTGRGPIDYDLIITGDLGRVGHEIATKLLGEKKYDVSKNYSDCGILIYDHERQDTHAGGSGCACSAVVFAGHLMGKLNEGRYKRILGVGTGALLSTTATQQGESIPGIGHGVVIEGLEHHHHHH
MLQLTHVTLKTRQVILQDVDFTFKKGRVYGLLAINGSGKTTLFRAISNLIPISSGNIAAPPSLFYYESIEWLDGNLSGMDYLRLIKNIWKSGLNLRDEIAYWEMSDYISLPIRKYSLGMKQRLVIAMYFLSQAKCWLMDEITNGLDEYYRQKFFDRLAQIDRQEQLVLLSSHYKEELVDVCDRVVTIHQGQIEEV
MGSDKIHHHHHHMSNKPFYYQDPFPLSKDDTEYRLLSSDFVSVAQFEGQDILKVEPAALTLLAQQAFHDASFMLRPAHQQQVADILHDPEASENDKYVALQFLRNSEISAKGILPTCQDTGTAIIVGKKGQNVWTGGNDAEALSQGVYNTFIEDNLRYSQNAALDMYQEVNTGTNLPAQIDLYSTEGEDYKFLFVTKGGGSANKTYLYQETKALLTPGKLKSFLIEKMRSLGTAACPPYHIAFAIGGTSAETTLKTVKLASTKYYDELPTEGNEHGQAFRDVALEQEILEAARDLGLGAQFGGKYFAHDVRIIRLPRHGASCPVGMGVSCSADRNIKGKINRKGVWLEQLEQNPGKYIPEHLRETGEGDAVKIDLNRPMTEILKTLSQYPVSTRLSLTGTIIVGRDIAHAKLKERLDNGEGLPQYIKDHPIYYAGPAKTPEGYPSGSLGPTTAGRMDSYVDLLQANGGSMVMLAKGNRSQQVTDACHKHGGFYLGSIGGPAAILAQNSIKSLTCVEYPELGMEAIWKIEVEDFPAFILVDDKGNDFFQVIQSAKCVKCG
MNKFGAEKIFIEKQSGATITHRPIFQEALDFVRAQDIFIVEAIDRLGRNYDEIIDSVNYLKKKNVRLIITSLPIMAEAIGNPLLDKFIKDLIIQILAMIAEQERTESKRRQAQGIKIAKANGVYKGRPKLYSADTKDPQRRLVYKSIVQDLKNGVAISKIAKDYNITRQTIYRIKKEIHELEIN
